Some targets named below: APE1 WT (Homo sapiens, UniProt P27695 1-318); APE1 C310S (Homo sapiens, UniProt P27695 1-318, C310S); APE1 C65S (Homo sapiens, UniProt P27695 1-318, C65S).
Common to all, as to test: fluorescence anisotropy
(In general: Polarisation of emitted light reports the rotation of a fluorescent probe.)

APE1 C65S, sequence (P27695 whole entry C65S): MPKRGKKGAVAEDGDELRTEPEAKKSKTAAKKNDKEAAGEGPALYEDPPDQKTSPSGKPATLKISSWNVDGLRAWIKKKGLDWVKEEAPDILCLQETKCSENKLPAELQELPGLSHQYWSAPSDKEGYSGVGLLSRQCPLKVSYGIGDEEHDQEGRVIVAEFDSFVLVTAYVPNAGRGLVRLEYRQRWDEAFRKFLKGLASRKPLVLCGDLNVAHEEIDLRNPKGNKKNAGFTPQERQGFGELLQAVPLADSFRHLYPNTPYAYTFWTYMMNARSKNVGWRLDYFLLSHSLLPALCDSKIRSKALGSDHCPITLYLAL
APE1 C310S, sequence (P27695 whole entry C310S): as the sequence (P27695 whole entry C65S) above, with S65C, C310S counted along it
APE1 WT, sequence (P27695 whole entry): as the sequence (P27695 whole entry C65S) above, with S65C counted along it

B1: N3 WT duplex (dsDNA)
DNA 1: TTGGGCGGGGCCTGGGCGGGGCC
DNA 2: GGCCCCGCCCAGGCCCCGCCCAA
In the case of B1, the binding result with APE1 WT is recorded as “no binding”.

B2: N3-5 G4 (structured_DNA)
DNA: TAGGGTGCTGTTTGGGCGGGGCCTGGGCGGGGCC
Take B2: the binding result in the series with APE1 C310S and with APE1 C65S was “binds” throughout.

B3: N3-4 G4 (structured_DNA)
DNA: TTGGGCGGGGCCTGGGCGGGGCC
In the case of B3, the binding result in the series with APE1 C310S and in the series with APE1 C65S was “binds” each time.

Source of the values: paper PMC9931449.
